B1: HDV Ribozyme (parent)
chain: GGCCGGCAUGGUCCCAGCCUCCUCGCUGGCGCCGGCUGGGCAACAUUCCGAGGGGACCGUCCCCUCGGUAAUGGCGAAUGGGACCCA

Variants of: B1
Test: self-cleavage, relative activity (ratio to wild type); higher = more cleavage; co-transcriptional

Variant	self-cleavage
G34A G54A	0.16
G35C G50C	0.0923
A16U U47C	0.72
C15A G31A	0.16
G2U G31C	0.0155
C57G G81U	0.388
G28C G29C	0.0504
G6A U47G	1.01
G35U U46G	0.141
G11C G54U	0.289
G2U G17C	0.0228
C18A U65A	0.0723
U23A U27G	0.762
G38U A42C	0.0941
G28A A70C	0.0554
C32U G82U	0.256
A8C G40C	0.242
C4U G28C	0
C21A C36G	0.0627
C18G G53C	0.227
C36A C61G	0.269

Variant	self-cleavage
G10A G40U	0.566
A83U C85U	0.446
C14G G73C	0.0504
G17C C75U	0
C33G G59C	0.201
C22U C64G	0.751
G50U A83U	0.683
U20C G25A	0.458
G10C C49U	0.89
C7G G35C	0.237
G55U U79A	0.635
U12A G50U	0.767
U12A A83U	0.674
C7U C84G	0.527
G73A A87C	0.643
U12G U60A	0.68
A16C C18G	0
U37A A51G	0.302
C44U G81A	0.224
G6U C64G	0.388
G1C C4A	0

Variant	self-cleavage
A51C G59U	0.762
U9C C33A	0.489
C58A C86U	1.1
G35U C66G	0.458
U9C U79C	0.499
C48G G74A	0.305
C24A C44A	0.217
C4U U72G	0.361
G28C G34A	0.146
G35C U69C	0.291
C24U C41G	0.437
G5U U20A	0
A78C G81U	0.128
C26G G39U	0.324
C64A G76C	0.95
G11A C61U	0.529
U46C G53U	0.831
G39A G68C	0.441
G11U C48U	0.369
C32G U79A	0.19
A51G C75U	0.217

Variant	self-cleavage
C4U G35C	0.119
G1U C49A	0.502
G55A C61G	1.06
U12A G28C	0
G1U C26U	0.222
U20G A70U	0.196
C63G C86U	0.816
G1A G29A	0.0615
G40U C57U	0.712
G17U A77G	0.0536
G11C G55A	0.407
G5C G17A	0.0852
G34C C85G	0.125
G6U G82A	0.0875
G74A	0.478
U46A G59A	0.78
G40A A77C	0.427
G1U A78G	0.346
G1A A16G	0.302
G53U A83U	0.609

From the RNAGym collection of RNA variant scans (doi:10.7554/elife.80360)
